Results: patent publication WO2012175740A1
Where two headings read alike, the source gives them in different places.

Legend:
[1] = biological target: cyno IgE c(epsilon)2-c(epsilon)3-c(epsilon)4 Fc fragment with C-terminal (His)10 tag (cynomolgus monkey); experiment: Alphascreen, competition with HuFc(epsilon)RI(alpha)Fc for cyno IgE Fc
[2] = biological target: cyno IgE c(epsilon)2-c(epsilon)3-c(epsilon)4 Fc fragment with C-terminal (His)10 tag (cynomolgus monkey); experiment: as above; remark: listed apart in the source

Sequence of cyno IgE c(epsilon)2-c(epsilon)3-c(epsilon)4 Fc fragment with C-terminal (His)10 tag (cynomolgus monkey) (chain, as listed by the source): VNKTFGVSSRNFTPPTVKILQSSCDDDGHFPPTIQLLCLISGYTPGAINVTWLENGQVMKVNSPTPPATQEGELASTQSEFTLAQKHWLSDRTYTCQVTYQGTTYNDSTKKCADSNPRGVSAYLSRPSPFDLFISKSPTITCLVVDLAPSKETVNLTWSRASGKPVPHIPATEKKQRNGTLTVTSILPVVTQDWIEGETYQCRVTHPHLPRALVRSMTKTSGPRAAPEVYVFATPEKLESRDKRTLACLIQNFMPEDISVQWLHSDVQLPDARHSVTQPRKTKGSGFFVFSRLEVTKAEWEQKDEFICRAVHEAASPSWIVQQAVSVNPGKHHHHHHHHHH

**Q.** Which results are given for “Fab obtained by papain digestion of commercially obtained omalizumab”?
**A.** % inhibition at 250 nM [1]: 99.3%; IC50 [1]: 1.39 nM; % inhibition at 250 nM [2]: 97.7%; IC50 [2]: 1.3 nM
